In patent publication US20040253247A1 (Genentech, published 2004):

B1: RC-R1 (peptide)
peptide: DICLPVWGCLW
notes: phage clone, Library RC
B2: RB-B10 (peptide)
peptide: QGDFWDICLPRWGCLSGEGY
notes: phage clone, Library RB
B3: RB-B1 (peptide)
peptide: RWQTEDVCLPKWGCLFGDGV
notes: phage clone, Library RB
B4: RB-R4 (peptide)
peptide: QRHMMDFCLPKWGCLWGDGY
notes: phage clone, Library RB
B5: RB-R7 (peptide)
peptide: QRPIMDFCLPKWGCLWEDGF
notes: phage clone, Library RB
B6: RB-R11 (peptide)
peptide: ERQMVDFCLPKWGCLWGDGF
notes: phage clone, Library RB
B7: RB-R14 (peptide)
peptide: QRQVVDFCLPQWGCLWGDGS
notes: phage clone, Library RB
B8: RB-R12 (peptide)
peptide: QGYMVDFCLPRWGCLWGDAN
notes: phage clone, Library RB
B9: RB-R13 (peptide)
peptide: KMGRVDFCLPKWGCLWGDEL
notes: phage clone, Library RB
B10: RB-R15 (peptide)
peptide: QSQLEDFCLPKWGCLWGDGF
notes: phage clone, Library RB
B11: RB-R17 (peptide)
peptide: QGGMGDFCLPQWGCLWGEDL
notes: phage clone, Library RB
B12: RB-R5 (peptide)
peptide: QRLMWEICLPLWGCLWGDGL
notes: phage clone, Library RB
B13: RB-R10 (peptide)
peptide: QRQIMDFCLPHWGCLWGDGF
notes: phage clone, Library RB
B14: RB-R2 (peptide)
peptide: GRQVVDFCLPKWGCLWEEGL
notes: phage clone, Library RB
B15: RB-R3 (peptide)
peptide: QMQMSDFCLPQWGCLWGDGY
notes: phage clone, Library RB
B16: RB-R9 (peptide)
peptide: KSRMGDFCLPEWGCLWGDEL
notes: phage clone, Library RB
B17: RB-R1 (peptide)
peptide: ERQMEDFCLPQWGCLWGDGV
notes: phage clone, Library RB
B18: RC-R2 (peptide)
peptide: DICLPVWGCLW
notes: phage clone, Library RC
B19: RC-R3 (peptide)
peptide: DICLPVWGCLW
notes: phage clone, Library RC
B20: RC-R10 (peptide)
peptide: DICLPVWGCLW
notes: phage clone, Library RC
B21: RC-R12 (peptide)
peptide: DICLPVWGCLW
notes: phage clone, Library RC
B22: RC-R18 (peptide)
peptide: DICLPVWGCLW
notes: phage clone, Library RC
B23: RBC-R16 (peptide)
peptide: EWDVCLPHWGCLWDG
notes: phage clone, Library RBC
B24: RBC-R7 (peptide)
peptide: WDDICFRDWGCLWGS
notes: phage clone, Library RBC
B25: RBC-R1 (peptide)
peptide: MDDICLHHWGCLWDE
notes: phage clone, Library RBC
B26: RBC-R2 (peptide)
peptide: MDDLCLPNWGCLWGD
notes: phage clone, Library RBC
B27: RBC-R4 (peptide)
peptide: FEDFCLPNWGCLWGS
notes: phage clone, Library RBC
B28: RBC-R6 (peptide)
peptide: FEDLCVVRWGCLWGD
notes: phage clone, Library RBC
B29: RBC-R5 (peptide)
peptide: WEDLCLPDWGCLWED
notes: phage clone, Library RBC
B30: RBC-R9 (peptide)
peptide: SEDFCLPVWGCLWED
notes: phage clone, Library RBC
B31: RBC-R10 (peptide)
peptide: DFDLCLPDWGCLWDD
notes: phage clone, Library RBC
B32: RBC-R8 (peptide)
peptide: NWDLCFPDWGCLWDD
notes: phage clone, Library RBC
B33: RBC-R20 (peptide)
peptide: EEDVCLPVWGCLWEG
notes: phage clone, Library RBC
B34: RBC-R12 (peptide)
peptide: MFDLCLPKWGCLWGN
notes: phage clone, Library RBC
B35: RBC-R13 (peptide)
peptide: EFDLCLPTWGCLWED
notes: phage clone, Library RBC
B36: RBC-R15 (peptide)
peptide: MWDVCFPDWGCLWDV
notes: phage clone, Library RBC
B37: RBC-R18 (peptide)
peptide: EWDVCFPAWGCLWDQ
notes: phage clone, Library RBC
B38: RBC-R11 (peptide)
peptide: VWDLCLPQWGCLWDE
notes: phage clone, Library RBC
B39: RD-R5 (peptide)
peptide: DTCEDLVRLGLECWA
notes: phage clone, Library RD
B40: RD-R7 (peptide)
peptide: NTCADLVRLGLECWA
notes: phage clone, Library RD
B41: RD-R11 (peptide)
peptide: DTCDDLVQLGLECWA
notes: phage clone, Library RD
B42: RD-R6 (peptide)
peptide: DSCGDLLRLGLECWA
notes: phage clone, Library RD
B43: RD-R1 (peptide)
peptide: DTCSDLVGLGLECWA
notes: phage clone, Library RD
B44: HB-H16 (peptide)
peptide: RMPASLPCYWETICYESSEQ
notes: phage clone, Library HB
B45: HB-H18 (peptide)
peptide: RTAESLVCYWPGICFAQSER
notes: phage clone, Library HB
B46: HB-H1 (peptide)
peptide: RAPERWVCYWEGICFDRYEQ
notes: phage clone, Library HB
B47: HC-H6 (peptide)
peptide: DICYIPGICWM
notes: phage clone, Library HC
B48: HC-H2 (peptide)
peptide: KLCYFPGICWS
notes: phage clone, Library HC
B49: HC-H4 (peptide)
peptide: GMCYFPGICWA
notes: phage clone, Library HC
B50: HC-H13 (peptide)
peptide: DMCYFPGICWL
notes: phage clone, Library HC
B51: HC-H18 (peptide)
peptide: DMCYFPGICFN
notes: phage clone, Library HC
B52: HC-H12 (peptide)
peptide: ETCYFPGICWL
notes: phage clone, Library HC
B53: HBC-H7 (peptide)
peptide: LAEMCYFPGICWMSA
notes: phage clone, Library HBC
B54: phage clone WEADCAWHLGELVWCTKVEE (peptide)
peptide: WEADCAWHLGELVWCTKVEE
notes: M13/gIII phage display; Secondary Optimization

Columns and labels:
rabbit albumin = rabbit albumin (rabbit, UniProt P49065 25-608); test: phage ELISA
rabbit albumin, sequence (P49065 25-608 limits assumed): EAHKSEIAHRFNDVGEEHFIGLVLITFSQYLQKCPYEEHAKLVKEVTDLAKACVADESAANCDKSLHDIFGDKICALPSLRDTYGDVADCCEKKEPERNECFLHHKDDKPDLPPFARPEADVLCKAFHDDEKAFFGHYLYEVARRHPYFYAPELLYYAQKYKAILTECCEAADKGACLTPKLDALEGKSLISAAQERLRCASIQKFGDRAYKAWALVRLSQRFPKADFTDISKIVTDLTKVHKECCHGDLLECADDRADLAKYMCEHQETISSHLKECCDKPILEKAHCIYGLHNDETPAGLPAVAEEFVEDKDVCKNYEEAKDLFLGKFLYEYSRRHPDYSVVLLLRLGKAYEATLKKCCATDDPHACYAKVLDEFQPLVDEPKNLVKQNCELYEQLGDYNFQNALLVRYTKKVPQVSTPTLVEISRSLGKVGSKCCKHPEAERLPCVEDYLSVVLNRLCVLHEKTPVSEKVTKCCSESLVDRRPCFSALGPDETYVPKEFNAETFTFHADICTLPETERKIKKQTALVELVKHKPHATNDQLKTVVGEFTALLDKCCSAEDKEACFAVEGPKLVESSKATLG
Description: (§1) Phage ELISA—Phage clones (˜10¹¹ phage) were added to plates coated with rat, rabbit or human albumin. The microtiter plate was washed with wash buffer and bound phage were detected with HRP/Anti-M13 Conjugate. The amount of HRP bound was measured using ABTS/H₂O₂ substrate and monitoring the change at 405 nm.

human albumin = human albumin (human, UniProt P02768 25-609); test: phage ELISA
Description: as §1

rat albumin = rat albumin (rat, UniProt P02770 25-608); test: phage ELISA
rat albumin, sequence (P02770 25-608 limits assumed): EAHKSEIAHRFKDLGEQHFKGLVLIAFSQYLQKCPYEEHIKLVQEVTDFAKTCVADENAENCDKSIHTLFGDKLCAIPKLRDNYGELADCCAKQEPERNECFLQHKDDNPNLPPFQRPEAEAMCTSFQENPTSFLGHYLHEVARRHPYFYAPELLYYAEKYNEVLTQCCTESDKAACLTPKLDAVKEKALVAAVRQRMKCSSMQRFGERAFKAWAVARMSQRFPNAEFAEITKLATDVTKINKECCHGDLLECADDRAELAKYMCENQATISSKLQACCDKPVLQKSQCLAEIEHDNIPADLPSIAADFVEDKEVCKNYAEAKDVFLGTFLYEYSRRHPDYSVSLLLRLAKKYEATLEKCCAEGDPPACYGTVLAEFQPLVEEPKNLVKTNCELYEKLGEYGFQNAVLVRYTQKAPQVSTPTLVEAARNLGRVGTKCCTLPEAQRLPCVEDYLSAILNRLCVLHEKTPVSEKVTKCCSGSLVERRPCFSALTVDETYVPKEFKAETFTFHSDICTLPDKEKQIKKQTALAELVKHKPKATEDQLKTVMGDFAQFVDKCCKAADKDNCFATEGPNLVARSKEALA
Description: as §1

IgG-Fc = molecular target: T1, IgG-Fc (UniProt P01857-1 108-330 = IgG part, limits assumed); test: phage ELISA, M13/gIII display
T1 construct: domain: IgG-Fc; also called biotinylated-IgG-Fc; biotin-IgG-Fc

Row | Binder | binding result (rabbit albumin) | binding result (human albumin) | binding result (rat albumin) | EC50 (IgG-Fc) [nM]
1 | B1 | no binding | no binding |  | 
2 | B2 |  | no binding |  | 
3 | B3 |  | no binding |  | 
4 | B4 |  | no binding |  | 
5 | B5 |  | no binding |  | 
6 | B6 |  | no binding |  | 
7 | B7 | no binding | no binding |  | 
8 | B8 |  | no binding |  | 
9 | B9 |  | no binding |  | 
10 | B10 |  | no binding |  | 
11 | B11 |  | no binding |  | 
12 | B12 | no binding | no binding |  | 
13 | B13 | no binding | no binding |  | 
14 | B14 | no binding | no binding |  | 
15 | B15 | no binding | no binding |  | 
16 | B16 | no binding | no binding |  | 
17 | B17 | no binding | no binding |  | 
18 | B18 | no binding | no binding |  | 
19 | B19 | no binding | no binding |  | 
20 | B20 | no binding | no binding |  | 
21 | B21 | no binding | no binding |  | 
22 | B22 | no binding | no binding |  | 
23 | B23 |  | no binding |  | 
24 | B24 | no binding | no binding |  | 
25 | B25 | no binding | no binding |  | 
26 | B26 | no binding | no binding |  | 
27 | B27 | no binding | no binding |  | 

Row | Binder | binding result (rabbit albumin) | binding result (human albumin) | binding result (rat albumin) | EC50 (IgG-Fc) [nM]
28 | B28 | no binding | no binding |  | 
29 | B29 | no binding | no binding |  | 
30 | B30 | no binding | no binding |  | 
31 | B31 | no binding | no binding |  | 
32 | B32 | no binding | no binding |  | 
33 | B33 | no binding | no binding |  | 
34 | B34 | no binding | no binding |  | 
35 | B35 | no binding | no binding |  | 
36 | B36 | no binding | no binding |  | 
37 | B37 | no binding | no binding |  | 
38 | B38 | no binding | no binding |  | 
39 | B39 | no binding | no binding |  | 
40 | B40 | no binding | no binding |  | 
41 | B41 | no binding | no binding |  | 
42 | B42 | no binding | no binding |  | 
43 | B43 | no binding | no binding |  | 
44 | B44 | no binding |  | no binding | 
45 | B45 | no binding |  | no binding | 
46 | B46 | no binding |  | no binding | 
47 | B47 | no binding |  | no binding | 
48 | B48 | no binding |  | no binding | 
49 | B49 | no binding |  | no binding | 
50 | B50 | no binding |  | no binding | 
51 | B51 | no binding |  | no binding | 
52 | B52 | no binding |  | no binding | 
53 | B53 | no binding |  | no binding | 
54 | B54 |  |  |  | 7
